Experimental data from patent US9777044B2, “GLUT-1 as a receptor for HTLV envelopes and its uses” (CENTRE NATIONAL DE LA RECHERCHE SCIENTIFIQUE (CNRS), priority 2003, dated 2017).

Tests used:
293T cells = experiment: Hexose uptake assay: 2-deoxyglucose; type: cell-based, human; details: transfected 293T cells vs control cells
Protocol: Assay of hexose uptake. 2-deoxy-D[1-^3H]glucose, D[U-^14C]fructose and 3-O-[^14C]methyl-D-glucose were obtained from Amersham. Hexose uptake assay were adapted from Harrison et al. 1991). After transfection, approximately 250,000 were seeded/well in 24-well plates. […] Uptake was initiated by adding labeled hexoses to a final concentration of 0.1 mM (2 μCi/ml for 2-2-deoxy-D[1-^3H]glucose and 0.2 μCi/ml for D[U-^14C]fructose and 3-O-[^14C]methyl-D-glucose) and cells were incubated for 5′ additional minutes. Cells were then resuspended in 500 μl cold serum-free glucose-free DMEM, wash one time in serum-free glucose-free DMEM, and solubilized in 400 μl of 0.1% SDS. 3 μl was used for Bradford normalization, while the rest was used for detection of either ^3H or ^14C by liquid scintillation in a Beckman counter.

MCT1 and CD147 = experiment: RBD binding upon overexpression of MCT1 and CD147; set-up: species or system human
Source text: Extracellular lactate accumulates in cell cultures following its transport across cellular membranes by the MCT1 monocarboxylate transporter [Garcia, 1994]. Because HTLV and MLV share a common organization of the extracellular envelope [Kim, 2000] and the receptors for MLV Env are multispanning metabolite transporters [Overbaugh, 2001], we assessed whether the HTLV RBD bound to MCT1. Moreover, similar to our previous data concerning expression of the HTLV receptor on T cells [Manel, 2003], expression of MCT1 chaperone CD147 [Kirk, 2000] increases during T cell activation [Kasinrerk, 1992].
Expression vectors. Full length envelope expression vectors for HTLV-1 (pCEL/2[Denesvre, 1995]) and Friend ecotropic MLV (pCEL/F [Denesvre, 1995]), have been previously described. For the HTLV-2 envelope, a fragment from pHTE2 [Rosenberg, 1998] encompassing the tax, rex and env genes and the 3′ LTR was inserted in the pCSI [Battini, 1999] vector (pCSIX.H2). […]
Binding assays. […] Binding was analyzed on a FACSCalibur (Becton Dickinson) and data analysis was performed using CellQuest (Becton Dickinson) and WinMDI (Scripps) softwares.

murine erythrocytes = experiment: RBD binding on murine erythrocytes
[1] = test system: human primary hepatocytes; experiment: RBD binding on human primary hepatocytes

B1: H1RBD: first 215 residues of HTLV-1 SU fused to a C-terminal rabbit IgG Fc tag (rFc) (protein)
chain: DYSPSCCTLTIGVSSYHSKPCNPAQPVCSWTLDLLALSADQALQPPCPNLVSYSSYHATYSLYLFPHWIKKPNRNGGGYYSASYSDPCSLKCPYLGCQSWTCPYTGAVSSPYWKFQQDVNFTQEVSRLNINLHFSKCGFPFSLLVDAPGYDPIWFLNTEPSQLPPTAPPLLPHSNLDHILEPSIPWKSKLLTLVQVDVPRDCGCKPCICTVPEVSSVFIFPPKPKDVLTITLTPKVTCVVVDISKDDPEVQFSWFVDDVEVHTAQTQPREEQFNSTFRSVSELPIMHQDWLNGKEFKCRVNSAAFPAPIEKTISKTKGRPKAPQVYTIPPPKEQMAKDKVSLTCMITDFFPEDITVEWQWNGQPAENYKNTQPIMDTDGSYFVYSKLNVQKSNWEAGNTFTCSVLHEGLHNHHTEKSLSHSPGK
293T cells
  decrease in 2-deoxyglucose uptake: approximately 4 fold
MCT1 and CD147
  H1RBD binding upon separate and combined overexpression of MCT1 and CD147: did not result in increased H1RBD binding
Murine erythrocytes
  binding on murine erythrocytes: no significant H1RBD binding could be detected
[1]
  binding to human primary hepatocytes: unable to detect H1RBD binding
